This passage reports # PSM (IP1) (peptide spectral matches), # PSM (IP2) (peptide spectral matches) and MFI results from US20180044422A1, “TREATING SOLID TUMOR BY TARGETING DECTIN-1 SIGNALING” (New York University, priority 2016, published 2018).

For test [1], the target named is Dolichyl-diphosphooligosaccharide-protein glycosyltransferase subunit 1 (mouse) (UniProt Q91YQ5). The test can be described thus: Dectin-1 Fc affinity purification from KPC cell lysate, mass spectrometry.
Test [2] deals with 60S ribosomal protein L18 (mouse) (UniProt P35980). The test is described as above.
The target of test [3] is Isoform 2 of Microtubule-associated protein 4 (mouse) (UniProt P27546). The description is as above.
In the next test the target is Peroxiredoxin-1 (mouse) (UniProt P35700). The test is described as above.
The next test has as its target Clusterin (mouse) (UniProt Q06890). Described as above.
For test [4], the target named is Probable ATP-dependent RNA helicase DDX17 (mouse) (UniProt Q501J6). Described as above.
The target in a further test is Eef2 protein (mouse) (UniProt P58252). The description is as above.
Test [5] addresses Polyadenylate-binding protein 1 (mouse) (UniProt P29341). Described as above.
The target in test [6] is Elongation factor 1-alpha 1 (mouse) (UniProt P10126). Described as above.
For test [7], the target named is Putative uncharacterized protein (Sqrdl) (mouse) (UniProt Q9R112). Described as above.
Another test concerns the target Endoplasmin (mouse) (UniProt P08113). The description is as above.
The target of another test is Prohibitin (mouse) (UniProt P67778). The description is as above.
In test [8] the target is Cytochrome b-c1 complex subunit 2, mitochondrial (mouse) (UniProt Q9DB77). The description is as above.
For test [9], the target named is Sodium/potassium-transporting ATPase subunit alpha-1 (mouse) (UniProt Q8VDN2). The test is described as above.
The target of test [10] is Elongation factor 1-gamma (mouse) (UniProt Q9D8N0). The test is described as above.
The target in test [11] is recombinant mouse Galectin-9 (R&D Systems) (mouse) (UniProt O08573). The test can be described thus: Control in the bead flow cytometry assay: Dectin-1 IgG Fc beads + rGal-9, stained with the fluorescent isotype antibody instead of αGal-9 (row + + - + -) [cont.) F]. For orientation: A flow cytometer gives signals particle by particle.

human IgG Fc-conjugated Dectin-1 fusion protein (murine Dectin-1 IgG Fc; fc-mdec1a, InvivoGen), sequence (Q6QLQ4 69-244 limits assumed): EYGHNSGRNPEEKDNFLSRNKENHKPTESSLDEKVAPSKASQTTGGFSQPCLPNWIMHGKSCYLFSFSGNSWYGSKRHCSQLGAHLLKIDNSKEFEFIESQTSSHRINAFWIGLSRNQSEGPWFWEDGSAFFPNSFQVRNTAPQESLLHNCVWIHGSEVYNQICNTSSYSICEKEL
Putative uncharacterized protein (Sqrdl) (mouse), sequence (Q9R112 whole entry): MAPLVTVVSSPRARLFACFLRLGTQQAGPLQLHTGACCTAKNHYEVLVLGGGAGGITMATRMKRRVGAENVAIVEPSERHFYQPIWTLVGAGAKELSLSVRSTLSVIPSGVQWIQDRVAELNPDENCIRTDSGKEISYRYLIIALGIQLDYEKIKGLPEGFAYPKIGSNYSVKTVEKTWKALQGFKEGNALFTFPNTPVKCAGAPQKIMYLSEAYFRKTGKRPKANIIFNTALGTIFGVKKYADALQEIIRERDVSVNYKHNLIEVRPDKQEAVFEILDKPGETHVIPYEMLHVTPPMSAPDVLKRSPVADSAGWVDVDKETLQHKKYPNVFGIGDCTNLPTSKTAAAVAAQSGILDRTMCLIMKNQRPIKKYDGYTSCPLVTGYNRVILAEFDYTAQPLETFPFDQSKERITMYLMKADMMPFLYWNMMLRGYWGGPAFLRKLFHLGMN
Clusterin (mouse), sequence (Q06890 22-448 limits assumed): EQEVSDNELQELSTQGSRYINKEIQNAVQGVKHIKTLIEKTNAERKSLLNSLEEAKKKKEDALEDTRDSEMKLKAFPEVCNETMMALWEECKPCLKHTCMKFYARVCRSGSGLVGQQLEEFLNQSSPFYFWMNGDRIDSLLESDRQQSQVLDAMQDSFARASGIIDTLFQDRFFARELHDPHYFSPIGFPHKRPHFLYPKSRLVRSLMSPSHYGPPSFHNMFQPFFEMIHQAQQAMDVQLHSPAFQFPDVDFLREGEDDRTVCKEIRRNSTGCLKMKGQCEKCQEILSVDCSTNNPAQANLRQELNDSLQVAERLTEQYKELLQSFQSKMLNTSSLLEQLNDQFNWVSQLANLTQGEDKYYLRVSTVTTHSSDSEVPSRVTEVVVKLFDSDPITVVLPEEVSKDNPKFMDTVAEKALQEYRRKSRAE
Elongation factor 1-gamma (mouse), sequence (Q9D8N0 2-437 limits assumed): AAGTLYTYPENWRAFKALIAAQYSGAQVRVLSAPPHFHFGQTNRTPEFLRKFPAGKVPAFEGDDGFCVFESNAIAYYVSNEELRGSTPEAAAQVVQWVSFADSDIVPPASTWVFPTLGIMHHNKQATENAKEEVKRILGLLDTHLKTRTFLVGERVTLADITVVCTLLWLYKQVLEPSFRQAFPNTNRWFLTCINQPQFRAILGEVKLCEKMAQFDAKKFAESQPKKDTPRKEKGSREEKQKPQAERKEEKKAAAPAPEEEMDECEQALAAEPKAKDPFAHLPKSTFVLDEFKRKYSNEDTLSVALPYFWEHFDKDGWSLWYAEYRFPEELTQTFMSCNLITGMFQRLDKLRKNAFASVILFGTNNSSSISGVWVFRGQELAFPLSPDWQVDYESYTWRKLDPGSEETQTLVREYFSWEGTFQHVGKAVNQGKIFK
Polyadenylate-binding protein 1 (mouse), sequence (P29341 whole entry): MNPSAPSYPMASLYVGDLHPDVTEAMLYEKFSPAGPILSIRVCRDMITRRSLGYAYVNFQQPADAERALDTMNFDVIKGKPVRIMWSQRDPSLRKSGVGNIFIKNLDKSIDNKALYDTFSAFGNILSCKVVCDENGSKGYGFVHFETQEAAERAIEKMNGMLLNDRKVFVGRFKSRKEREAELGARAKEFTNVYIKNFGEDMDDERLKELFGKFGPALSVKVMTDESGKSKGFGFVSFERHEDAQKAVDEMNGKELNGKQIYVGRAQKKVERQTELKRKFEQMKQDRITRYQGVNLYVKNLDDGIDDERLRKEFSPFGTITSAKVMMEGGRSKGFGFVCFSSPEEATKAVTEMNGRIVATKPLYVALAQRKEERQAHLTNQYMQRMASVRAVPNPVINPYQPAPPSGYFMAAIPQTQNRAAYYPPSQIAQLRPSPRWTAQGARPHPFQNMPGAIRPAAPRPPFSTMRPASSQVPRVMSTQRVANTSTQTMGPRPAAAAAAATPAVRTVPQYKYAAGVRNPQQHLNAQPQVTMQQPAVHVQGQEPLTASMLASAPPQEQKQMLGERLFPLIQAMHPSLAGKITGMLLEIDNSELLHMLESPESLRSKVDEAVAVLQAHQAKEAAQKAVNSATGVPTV
Endoplasmin (mouse), sequence (P08113 22-802 limits assumed): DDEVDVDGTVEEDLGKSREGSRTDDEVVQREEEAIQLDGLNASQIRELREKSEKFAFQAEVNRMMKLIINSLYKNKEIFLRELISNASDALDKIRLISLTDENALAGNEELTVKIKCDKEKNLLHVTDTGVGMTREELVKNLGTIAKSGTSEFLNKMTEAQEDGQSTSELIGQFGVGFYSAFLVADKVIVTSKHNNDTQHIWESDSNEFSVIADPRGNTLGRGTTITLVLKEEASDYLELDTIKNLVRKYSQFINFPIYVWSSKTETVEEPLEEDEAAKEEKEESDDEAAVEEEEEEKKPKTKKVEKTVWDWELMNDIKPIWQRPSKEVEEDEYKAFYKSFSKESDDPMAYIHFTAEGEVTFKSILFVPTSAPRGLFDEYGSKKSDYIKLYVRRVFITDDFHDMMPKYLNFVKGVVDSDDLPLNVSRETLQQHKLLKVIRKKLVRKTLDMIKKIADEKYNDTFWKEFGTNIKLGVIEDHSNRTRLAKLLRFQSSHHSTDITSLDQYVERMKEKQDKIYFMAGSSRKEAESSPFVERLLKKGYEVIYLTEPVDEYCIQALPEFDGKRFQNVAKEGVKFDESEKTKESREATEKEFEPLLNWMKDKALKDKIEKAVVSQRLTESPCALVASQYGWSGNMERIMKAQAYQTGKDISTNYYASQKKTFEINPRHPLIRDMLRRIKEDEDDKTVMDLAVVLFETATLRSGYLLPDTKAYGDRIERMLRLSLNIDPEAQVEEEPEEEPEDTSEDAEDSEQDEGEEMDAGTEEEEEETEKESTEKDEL
Elongation factor 1-alpha 1 (mouse), sequence (P10126 2-462 limits assumed): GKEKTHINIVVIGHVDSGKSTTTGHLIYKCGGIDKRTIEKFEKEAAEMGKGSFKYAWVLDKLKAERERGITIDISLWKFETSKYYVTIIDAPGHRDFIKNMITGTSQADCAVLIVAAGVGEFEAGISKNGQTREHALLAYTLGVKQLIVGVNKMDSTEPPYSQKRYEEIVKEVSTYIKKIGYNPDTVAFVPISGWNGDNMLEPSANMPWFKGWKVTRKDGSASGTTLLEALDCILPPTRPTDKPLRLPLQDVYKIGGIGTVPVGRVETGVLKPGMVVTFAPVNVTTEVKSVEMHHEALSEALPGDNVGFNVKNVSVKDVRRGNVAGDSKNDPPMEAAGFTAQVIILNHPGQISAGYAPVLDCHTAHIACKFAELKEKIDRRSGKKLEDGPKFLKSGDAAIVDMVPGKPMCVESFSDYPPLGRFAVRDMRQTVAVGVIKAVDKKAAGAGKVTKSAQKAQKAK
Isoform 2 of Microtubule-associated protein 4 (mouse), sequence (P27546 other isoform, or with tags, fused parts or gaps limits assumed): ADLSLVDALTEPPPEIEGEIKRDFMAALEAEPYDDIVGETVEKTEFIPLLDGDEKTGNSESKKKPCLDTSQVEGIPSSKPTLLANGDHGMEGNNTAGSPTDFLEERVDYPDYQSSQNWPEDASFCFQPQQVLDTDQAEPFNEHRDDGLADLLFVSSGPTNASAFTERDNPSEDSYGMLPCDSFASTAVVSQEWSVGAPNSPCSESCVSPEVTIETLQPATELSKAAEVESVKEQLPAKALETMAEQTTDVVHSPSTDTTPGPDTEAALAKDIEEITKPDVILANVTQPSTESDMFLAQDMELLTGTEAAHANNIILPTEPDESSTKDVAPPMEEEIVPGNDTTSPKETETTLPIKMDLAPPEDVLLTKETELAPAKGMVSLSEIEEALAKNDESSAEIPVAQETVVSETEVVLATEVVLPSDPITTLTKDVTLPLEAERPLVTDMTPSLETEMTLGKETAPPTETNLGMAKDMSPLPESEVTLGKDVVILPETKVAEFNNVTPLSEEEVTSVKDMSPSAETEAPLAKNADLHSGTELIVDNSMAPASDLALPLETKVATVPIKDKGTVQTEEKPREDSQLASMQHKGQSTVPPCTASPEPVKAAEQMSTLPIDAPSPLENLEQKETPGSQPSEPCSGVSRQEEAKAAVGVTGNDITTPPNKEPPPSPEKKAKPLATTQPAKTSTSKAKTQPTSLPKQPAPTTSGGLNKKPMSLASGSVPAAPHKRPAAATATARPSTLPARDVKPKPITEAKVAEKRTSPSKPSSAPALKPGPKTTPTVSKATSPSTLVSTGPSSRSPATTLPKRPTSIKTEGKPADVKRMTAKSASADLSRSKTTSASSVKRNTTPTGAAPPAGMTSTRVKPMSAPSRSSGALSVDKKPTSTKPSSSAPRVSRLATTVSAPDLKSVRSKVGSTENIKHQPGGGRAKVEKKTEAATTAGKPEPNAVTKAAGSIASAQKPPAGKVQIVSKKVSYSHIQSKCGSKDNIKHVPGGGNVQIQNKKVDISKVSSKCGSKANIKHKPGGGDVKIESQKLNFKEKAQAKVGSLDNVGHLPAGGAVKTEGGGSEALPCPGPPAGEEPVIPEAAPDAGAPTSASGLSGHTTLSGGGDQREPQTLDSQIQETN
Peroxiredoxin-1 (mouse), sequence (P35700 2-199 limits assumed): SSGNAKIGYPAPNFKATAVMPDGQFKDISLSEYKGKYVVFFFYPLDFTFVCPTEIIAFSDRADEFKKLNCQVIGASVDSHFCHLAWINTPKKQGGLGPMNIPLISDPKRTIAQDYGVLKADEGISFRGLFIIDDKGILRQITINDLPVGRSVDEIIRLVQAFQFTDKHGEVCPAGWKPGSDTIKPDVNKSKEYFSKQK
Prohibitin (mouse), sequence (P67778 2-272 limits assumed): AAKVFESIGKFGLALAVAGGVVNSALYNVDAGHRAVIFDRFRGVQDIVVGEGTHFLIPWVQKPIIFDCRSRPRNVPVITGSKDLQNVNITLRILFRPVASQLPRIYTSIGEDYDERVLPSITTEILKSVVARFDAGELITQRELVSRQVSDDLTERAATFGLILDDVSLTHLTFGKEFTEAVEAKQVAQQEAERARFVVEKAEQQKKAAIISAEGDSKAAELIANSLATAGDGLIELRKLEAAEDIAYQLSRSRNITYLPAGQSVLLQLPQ

For “human IgG Fc-conjugated Dectin-1 fusion protein (murine Dectin-1 IgG Fc; fc-mdec1a, InvivoGen) (from UniProt Q6QLQ4 69-244) (Fc fusion)”, the # PSM (IP1) (peptide spectral matches) in [1] was determined as 7; in test [2], 4; in test [3] it was 6; in the test with Peroxiredoxin-1 (mouse), 7; in the test with Clusterin (mouse) it was 8; in test [4] it was 7. The # PSM (IP1) (peptide spectral matches) with Eef2 protein (mouse) stood at 23; in [5], 13; in test [6] it was 23; in test [7], 6; with Endoplasmin (mouse), 30; in the test with Prohibitin (mouse) it was 5. Moreover, the # PSM (IP1) (peptide spectral matches) in [8] is 8; in test [9], 13; in test [10], 11. Moreover, the # PSM (IP2) (peptide spectral matches) amounted to 14 in test [1]; 10 in [2]; 23 in test [3]; 16 in the test with Peroxiredoxin-1 (mouse); 9 with Clusterin (mouse); 36 in test [4]. Moreover, the # PSM (IP2) (peptide spectral matches) with Eef2 protein (mouse) was 31; in test [5], 92; in [6], 48; in test [7] it was 19; with Endoplasmin (mouse), 8; in the test with Prohibitin (mouse) it was 6. The figures for the # PSM (IP2) (peptide spectral matches) in [8], in [9] and in test [10] were 8, 14 and 11, respectively.
Turning to “fluorescently-conjugated isotype antibody”, the MFI in test [11] came to 669.
